Results taken from US20240209076A1 (KODIAK SCIENCES, published 2024).
Positions count from the first letter of the chain named. Names and notes keep the numbering of the source.

B1: anti-IL-6 antibody, heavy chain I51A, G66D / light chain M32L, M50D, N52S, M88Q (antibody, IgG1, V domains shown)
VH: EVQLVESGGGLVQPGGSLRLSCAASGFTFSPFAMSWVRQAPGKGLEWVAKASPGGSWTYYSDTVTDRFTFSLDTSKSTAYLQMNSLRAEDTAVYYCARQLWGYYALDIWGQGTLVTVSS
VL: DIQLTQSPSSLSASVGDRVTITCSASISVSYLYWYQQKPGKAPKLLIYDDSSLASGVPSRFSGSGSGTDFTLTISSLQPEDFATYYCQQWSGYPYTFGQGTKVEIK
notes: Full IgG1 (Expi293); VL = variant III
B2: Anti-IL-6 antibody, heavy chain S35H, G66D, Q99L / light chain M32L, M50D, N52S, M88Q (antibody, IgG1, V domains shown)
VH: B1 VH with S35H, A51I, Q99L
VL: B1 VL
notes: IgG1; variable domains only; VL is variant III
B3: anti-IL-6 antibody, heavy chain I51H, G66D / light chain M32L, M50D, N52S, M88Q (antibody, IgG1, V domains shown)
VH: B1 VH with A51H
VL: B1 VL
notes: as for B1
B4: Anti-IL-6 antibody, heavy chain S35H, G66D, Q99T / light chain WT (antibody, IgG1, V domains shown)
VH: B1 VH with S35H, A51I, Q99T
VL: B1 VL with L32M, D50M, S52N, Q88M
notes: IgG1; variable domains only
B5: Anti-IL-6 antibody, heavy chain S35H, G66D, Q99I / light chain M32L, M50D, N52S, M88Q (antibody, IgG1, V domains shown)
VH: B1 VH with S35H, A51I, Q99I
VL: B1 VL
notes: as for B2
B6: anti-IL-6 antibody, heavy chain I51L, G66D / light chain M32L, M50D, N52S, M88Q (antibody, IgG1, V domains shown)
VH: B1 VH with A51L
VL: B1 VL
notes: as for B1
B7: anti-IL-6 antibody, heavy chain I51S, G66D / light chain M32L, M50D, N52S, M88Q (antibody, IgG1, V domains shown)
VH: B1 VH with A51S
VL: B1 VL
notes: as for B1
B8: anti-IL-6 antibody, heavy chain I51F, G66D / light chain M32L, M50D, N52S, M88Q (antibody, IgG1, V domains shown)
VH: B1 VH with A51F
VL: B1 VL
notes: as for B1
B9: anti-IL-6 antibody, heavy chain I51Q, G66D / light chain M32L, M50D, N52S, M88Q (antibody, IgG1, V domains shown)
VH: B1 VH with A51Q
VL: B1 VL
notes: as for B1
B10: anti-IL-6 antibody, heavy chain I51D, G66D / light chain M32L, M50D, N52S, M88Q (antibody, IgG1, V domains shown)
VH: B1 VH with A51D
VL: B1 VL
notes: as for B1
B11: Anti-IL-6 antibody, heavy chain S35H, G66D, Q99H / light chain WT (antibody, IgG1, V domains shown)
VH: B1 VH with S35H, A51I, Q99H
VL: B1 VL with L32M, D50M, S52N, Q88M
notes: IgG1; variable domains only
B12: Anti-IL-6 antibody, heavy chain S35H, G66D, Q99I / light chain WT (antibody, IgG1, V domains shown)
VH: B1 VH with S35H, A51I, Q99I
VL: B1 VL with L32M, D50M, S52N, Q88M
notes: IgG1; variable domains only
B13: Anti-IL-6 antibody, heavy chain S35H, G66D, Q99K / light chain WT (antibody, IgG1, V domains shown)
VH: B1 VH with S35H, A51I, Q99K
VL: B1 VL with L32M, D50M, S52N, Q88M
notes: IgG1; variable domains only
B14: anti-IL-6 antibody, heavy chain I51G, G66D / light chain M32L, M50D, N52S, M88Q (antibody, IgG1, V domains shown)
VH: B1 VH with A51G
VL: B1 VL
notes: as for B1
B15: Anti-IL-6 antibody, heavy chain S35H, G66D, Q99G / light chain M32L, M50D, N52S, M88Q (antibody, IgG1, V domains shown)
VH: B1 VH with S35H, A51I, Q99G
VL: B1 VL
notes: as for B2
B16: Anti-IL-6 antibody, heavy chain S35H, G66D, Q99R / light chain M32L, M50D, N52S, M88Q (antibody, IgG1, V domains shown)
VH: B1 VH with S35H, A51I, Q99R
VL: B1 VL
notes: as for B2
B17: Anti-IL-6 antibody, heavy chain S35H, G66D, Q99Y / light chain WT (antibody, IgG1, V domains shown)
VH: B1 VH with S35H, A51I, Q99Y
VL: B1 VL with L32M, D50M, S52N, Q88M
notes: IgG1; variable domains only
B18: Anti-IL-6 antibody, heavy chain S35H, G66D, Q99L / light chain WT (antibody, IgG1, V domains shown)
VH: B1 VH with S35H, A51I, Q99L
VL: B1 VL with L32M, D50M, S52N, Q88M
notes: IgG1; variable domains only
B19: Anti-IL-6 antibody, heavy chain S35H, G66D, Q99F / light chain WT (antibody, IgG1, V domains shown)
VH: B1 VH with S35H, A51I, Q99F
VL: B1 VL with L32M, D50M, S52N, Q88M
notes: IgG1; variable domains only
B20: Anti-IL-6 antibody, heavy chain S35H, G66D, Q99K / light chain M32L, M50D, N52S, M88Q (antibody, IgG1, V domains shown)
VH: B1 VH with S35H, A51I, Q99K
VL: B1 VL
notes: as for B2
B21: anti-IL-6 antibody, heavy chain I51T, G66D / light chain M32L, M50D, N52S, M88Q (antibody, IgG1, V domains shown)
VH: B1 VH with A51T
VL: B1 VL
notes: as for B1
B22: Anti-IL-6 antibody, heavy chain S35H, G66D, Q99P / light chain M32L, M50D, N52S, M88Q (antibody, IgG1, V domains shown)
VH: B1 VH with S35H, A51I, Q99P
VL: B1 VL
notes: as for B2
B23: Anti-IL-6 antibody, heavy chain S35H, G66D, Q99H / light chain M32L, M50D, N52S, M88Q (antibody, IgG1, V domains shown)
VH: B1 VH with S35H, A51I, Q99H
VL: B1 VL
notes: as for B2
B24: Anti-IL-6 antibody, heavy chain WT / light chain M32L, M50D, N52S, M88Q (antibody, IgG1, V domains shown)
VH: B1 VH with A51I, D66G
VL: B1 VL
notes: as for B2
B25: Anti-IL-6 antibody, heavy chain S35H, G66D, Q99V / light chain M32L, M50D, N52S, M88Q (antibody, IgG1, V domains shown)
VH: B1 VH with S35H, A51I, Q99V
VL: B1 VL
notes: as for B2
B26: Anti-IL-6 antibody, heavy chain S35H, G66D, Q99G / light chain WT (antibody, IgG1, V domains shown)
VH: B1 VH with S35H, A51I, Q99G
VL: B1 VL with L32M, D50M, S52N, Q88M
notes: IgG1; variable domains only
B27: anti-IL-6 antibody, heavy chain I51R, G66D / light chain M32L, M50D, N52S, M88Q (antibody, IgG1, V domains shown)
VH: B1 VH with A51R
VL: B1 VL
notes: as for B1
B28: Anti-IL-6 antibody, heavy chain S35H, G66D, Q99T / light chain M32L, M50D, N52S, M88Q (antibody, IgG1, V domains shown)
VH: B1 VH with S35H, A51I, Q99T
VL: B1 VL
notes: as for B2
B29: anti-IL-6 antibody, heavy chain I51E, G66D / light chain M32L, M50D, N52S, M88Q (antibody, IgG1, V domains shown)
VH: B1 VH with A51E
VL: B1 VL
notes: as for B1
B30: anti-IL-6 antibody, heavy chain I51V, G66D / light chain M32L, M50D, N52S, M88Q (antibody, IgG1, V domains shown)
VH: B1 VH with A51V
VL: B1 VL
notes: as for B1
B31: anti-IL-6 antibody, heavy chain I51K, G66D / light chain M32L, M50D, N52S, M88Q (antibody, IgG1, V domains shown)
VH: B1 VH with A51K
VL: B1 VL
notes: as for B1
B32: Anti-IL-6 antibody, heavy chain S35H, G66D, Q99S / light chain M32L, M50D, N52S, M88Q (antibody, IgG1, V domains shown)
VH: B1 VH with S35H, A51I, Q99S
VL: B1 VL
notes: as for B2
B33: Anti-IL-6 antibody, heavy chain S35H, G66D, Q99Y / light chain M32L, M50D, N52S, M88Q (antibody, IgG1, V domains shown)
VH: B1 VH with S35H, A51I, Q99Y
VL: B1 VL
notes: as for B2
B34: Anti-IL-6 antibody, heavy chain S35H, G66D, Q99S / light chain WT (antibody, IgG1, V domains shown)
VH: B1 VH with S35H, A51I, Q99S
VL: B1 VL with L32M, D50M, S52N, Q88M
notes: IgG1; variable domains only
B35: Anti-IL-6 antibody, heavy chain S35H, G66D, Q99R / light chain WT (antibody, IgG1, V domains shown)
VH: B1 VH with S35H, A51I, Q99R
VL: B1 VL with L32M, D50M, S52N, Q88M
notes: IgG1; variable domains only
B36: Anti-IL-6 antibody, heavy chain S35H, G66D, Q99V / light chain WT (antibody, IgG1, V domains shown)
VH: B1 VH with S35H, A51I, Q99V
VL: B1 VL with L32M, D50M, S52N, Q88M
notes: IgG1; variable domains only

Experiments:
human IL-6 [1] = biological target: T1, human IL-6 (human, UniProt P05231 30-212); assay: SPR Biacore, supernatant Ab on Protein A chip, 37 C
T1 construct: IL-6 flowed over captured antibodies
Description: (§1) Antibodies were captured on a Protein A chip (GE) by injecting 1:20 cell supernatant dilutions at 10 μL/min for 60 seconds. […] The sensor chip was regenerated by a 60 seconds injection of 10 mM Glycine pH 1.7 at the flow rate of 50 μL/min. […] For this setup, 1 μg/mL of purified antibody was injected over a Protein A chip at 10 μL/min for 25 seconds. […] The sensor chip was regenerated by a 60 seconds injection of 10 mM Glycine pH 1.7 at flow rate of 50 μL/min. Data analysis for supernatant and purified samples were performed using BIAevaluation software (GE). All sensorgrams were double reference subtracted and fit using a 1:1 Langmuir binding model.
T1 sequence (P05231 30-212 limits assumed): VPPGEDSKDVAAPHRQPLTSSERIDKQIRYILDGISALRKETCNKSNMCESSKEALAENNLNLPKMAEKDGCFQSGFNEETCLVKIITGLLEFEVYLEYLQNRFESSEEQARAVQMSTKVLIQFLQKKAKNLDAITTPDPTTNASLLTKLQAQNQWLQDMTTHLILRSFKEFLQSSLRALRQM

human IL-6 [2] = biological target: human IL-6 (human, UniProt P05231 30-212); assay: SPR Biacore, supernatant, Protein A capture, 37 C
Description: Those four positions were selected based on their tolerance for mutations as observed in bacterial and mammalian screens. […] These cultures were centrifuged and supernatants containing secreted antibodies were harvested and diluted in HBS-EP+ running buffer (1:20 ratio).
as §1
Target sequence in this assay (P05231 30-212 limits assumed): as above

Binder	Kd (human IL-6 [1])	koff (human IL-6 [1])	kon (human IL-6 [1])	Kd (human IL-6 [2])	koff (human IL-6 [2])	kon (human IL-6 [2])
B1	0.559 nM	0.000899 s⁻¹	1.61e+06 M⁻¹ s⁻¹			
B2				0.595 nM	0.000775 s⁻¹	1.3e+06 M⁻¹ s⁻¹
B3	0.5 nM	0.00104 s⁻¹	2.07e+06 M⁻¹ s⁻¹			
B4				1.31 nM	0.00222 s⁻¹	1.69e+06 M⁻¹ s⁻¹
B5				0.0381 nM	0.000206 s⁻¹	5.41e+06 M⁻¹ s⁻¹
B6	0.98 nM	0.00161 s⁻¹	1.64e+06 M⁻¹ s⁻¹			
B7	0.217 nM	0.000401 s⁻¹	1.85e+06 M⁻¹ s⁻¹			
B8	4.45 nM	0.00611 s⁻¹	1.37e+06 M⁻¹ s⁻¹			
B9	0.575 nM	0.00113 s⁻¹	1.96e+06 M⁻¹ s⁻¹			
B10	9.58 nM	0.00799 s⁻¹	834000 M⁻¹ s⁻¹			
B11				1.7 nM	0.00136 s⁻¹	802000 M⁻¹ s⁻¹
B12				3.86 nM	0.00335 s⁻¹	868000 M⁻¹ s⁻¹
B13				15.1 nM	0.00333 s⁻¹	220000 M⁻¹ s⁻¹
B14	0.652 nM	0.000912 s⁻¹	1.4e+06 M⁻¹ s⁻¹			
B15				2.58 nM	0.00774 s⁻¹	3e+06 M⁻¹ s⁻¹
B16				2.34 nM	0.000657 s⁻¹	280000 M⁻¹ s⁻¹
B17				0.825 nM	0.00215 s⁻¹	2.6e+06 M⁻¹ s⁻¹
B18				0.244 nM	0.000262 s⁻¹	1.07e+06 M⁻¹ s⁻¹

Binder	Kd (human IL-6 [1])	koff (human IL-6 [1])	kon (human IL-6 [1])	Kd (human IL-6 [2])	koff (human IL-6 [2])	kon (human IL-6 [2])
B19				3.39 nM	0.00166 s⁻¹	489000 M⁻¹ s⁻¹
B20				0.368 nM	0.00146 s⁻¹	3.97e+06 M⁻¹ s⁻¹
B21	0.233 nM	0.000478 s⁻¹	2.05e+06 M⁻¹ s⁻¹			
B22				1.35 nM	0.00169 s⁻¹	1.25e+06 M⁻¹ s⁻¹
B23				5.52 nM	0.00441 s⁻¹	798000 M⁻¹ s⁻¹
B24				0.686 nM	0.000631 s⁻¹	920000 M⁻¹ s⁻¹
B25				1.76 nM	0.0014 s⁻¹	794000 M⁻¹ s⁻¹
B26				0.961 nM	0.0033 s⁻¹	3.43e+06 M⁻¹ s⁻¹
B27	0.0357 nM	5.8e-05 s⁻¹	1.63e+06 M⁻¹ s⁻¹			
B28				6.51 nM	0.049 s⁻¹	7.52e+06 M⁻¹ s⁻¹
B29	2.14 nM	0.00196 s⁻¹	914000 M⁻¹ s⁻¹			
B30	1.11 nM	0.00195 s⁻¹	1.76e+06 M⁻¹ s⁻¹			
B31	0.349 nM	0.000601 s⁻¹	1.72e+06 M⁻¹ s⁻¹			
B32				7.66 nM	0.00154 s⁻¹	201000 M⁻¹ s⁻¹
B33				2.51 nM	0.00547 s⁻¹	2.17e+06 M⁻¹ s⁻¹
B34				6.48 nM	0.0257 s⁻¹	3.96e+06 M⁻¹ s⁻¹
B35				11.4 nM	0.00161 s⁻¹	141000 M⁻¹ s⁻¹
B36				4.8 nM	0.00431 s⁻¹	898000 M⁻¹ s⁻¹
